Like-named read-outs stand apart in the source and are kept apart here.
Columns and labels:
[1] = target: T1, PD-1 (Programmed Cell Death Protein 1) on cells (UniProt Q15116 25-288); assay: flow cytometry on PD-1 transfected CHO-S cells, MFI; * poor fit
T1 construct: whole, on cells

[2] = target: T2, CD3 (Cluster of Differentiation 3) on Jurkat cells and on pan T cells (human, UniProt P07766 23-207); assay: cell ELISA on Jurkat cells (CD3), OD450; EC50 relative to v30421
T2 construct: whole, on cells

[3] = target: T3, PD-L1 (Programmed death-ligand 1) on cells (UniProt Q9NZQ7 19-290); assay: flow cytometry on PD-L1 transfected CHO-S cells, sample without uPa
T3 construct: whole, on cells

[4] = target: T2, CD3 (Cluster of Differentiation 3) on …; assay: cell ELISA on Jurkat cells (CD3), OD450
[5] = target: T2, CD3 (Cluster of Differentiation 3) on …; assay: cell ELISA on Jurkat cells (CD3), OD450; remark: listed apart in the source
[6] = target: T2, CD3 (Cluster of Differentiation 3) on …; assay: cell ELISA on Jurkat cells (CD3), OD450; EC50 relative to v30421; remark: listed apart in the source
[7] = target: T2, CD3 (Cluster of Differentiation 3) on …; assay: cell ELISA on CD3-bearing Jurkat cells, sample without uPa
[8] = target: T4, CD40 (Cluster of Differentiation 40) on cells (UniProt P25942 21-277, limits assumed); assay: flow cytometry on Raji cells (CD40), MFI
T4 construct: whole, on cells

[9] = target: T4, CD40 (Cluster of Differentiation 40) on …; assay: cell-based or functional assay
[10] = target: T4, CD40 (Cluster of Differentiation 40) on …; assay: flow cytometry on Raji cells (CD40), MFI; sample treated with uPa; EC50 relative to v32477 -uPa
[11] = target: T4, CD40 (Cluster of Differentiation 40) on …; assay: flow cytometry on Raji cells (CD40), MFI; sample treated with uPa (variant has no cleavage site)
[12] = target: T4, CD40 (Cluster of Differentiation 40) on …; assay: flow cytometry on Raji cells, samples with and without uPa
[13] = target: T4, CD40 (Cluster of Differentiation 40) on …; assay: flow cytometry on Raji cells, sample without uPa
[14] = target: T4, CD40 (Cluster of Differentiation 40) on …; assay: cell-based or functional assay; remark: listed apart in the source

B1: Variant 30436: WT PD-1:HA PD-L1 masked CD3 × Her2 Fab × scFv Fc, PD-1 cleavable (not treated with uPa) (bispecific antibody, human IgG1, kappa, L234A L235A)
heavy: not shown
light: AFTVTVPKDLYVVEYGSNMTIECKFPVEKQLDLAALQVFWMMEDKNIIQFVHGEEDLKVQHSSYRQRARLLKDQLSLGNAALQITDVKLQDAGVYTCLIAYKGADYKRITVKVNAEAAAKEAAAKDIQMTQSPSSLSASVGDRVTMTCSASSSVSYMNWYQQKPGKAPKRWIYDSSKLASGVPARFSGSGSGTDYTLTISSLQPEDFATYYCQQWSRNPPTFGGGTKLQITRTVAAPSVFIFPPSDEQLKSGTASVVCLLNNFYPREAKVQWKVDNALQSGNSQESVTEQDSKDSTYSLSSTLTLSKADYEKHKVYACEVTHQGLSSPVTKSFNRGEC
chain: not shown
notes: also called masked, heavy-chain-cleavable variant
For B1, the “Fold wrt v31931” value [1] was greater than 35 fold, the “Fold wrt WT” value [2] was 150 fold and the binding result [3] was “no binding (tested: titrated from 200 nM at a 1:3 dilution)”. For the same binder, the EC50 [4] was 180 nM.

B2: Variant 30444: WT CTLA4:WT CD80 masked CD3 × Her2 Fab × scFv Fc, CTLA4 cleavable (not treated with uPa) (bispecific antibody, human IgG1, kappa, L234A L235A)
heavy: not shown
light: MHVAQPAVVLASSRGIASFVCEYASPGKATEVRVTVLRQADSQVTEVCAATYMMGNELTFLDDSICTGTSSGNQVNLTIQGLRAMDTGLYICKVELMYPPPYYLGIGNGTQIYVIDPEEAAAKEAAAKMSGRSANADIQMTQSPSSLSASVGDRVTMTCSASSSVSYMNWYQQKPGKAPKRWIYDSSKLASGVPARFSGSGSGTDYTLTISSLQPEDFATYYCQQWSRNPPTFGGGTKLQITRTVAAPSVFIFPPSDEQLKSGTASVVCLLNNFYPREAKVQWKVDNALQSGNSQESVTEQDSKDSTYSLSSTLTLSKADYEKHKVYACEVTHQGLSSPVTKSFNRGEC
chain: not shown
notes: also called v30444
B2 was tested, and the EC50 [5] was 100 nM, the “Fold wrt WT” value [6] was 83 fold and the “fold decrease of target binding” value [7] was roughly 80 fold.

B3: Variant 32477: Unmasked aCD40 mAb (antibody, human IgG1, kappa)
heavy: not shown
light: DIQMTQSPSSVSASVGDRVTITCRASQGIYSWLAWYQQKPGKAPNLLIYTASTLQSGVPSRFSGSGSGTDFTLTISSLQPEDFATYYCQQANIFPLTFGGGTKVEIKRTVAAPSVFIFPPSDEQLKSGTASVVCLLNNFYPREAKVQWKVDNALQSGNSQESVTEQDSKDSTYSLSSTLTLSKADYEKHKVYACEVTHQGLSSPVTKSFNRGEC
notes: also called v32477
In the case of B3, the EC50 [8] is reported as 0.98 nM, the “EC50, CD40 RGA, FcgRIIB CHOK1 (sample v32477 + uPa)” value [9] is reported as 0.03 µg/mL and the “EC50, CD40 RGA, FcgRIIB CHOK1 (sample v32477 - uPa)” value [9] is reported as 0.05 µg/mL. The “EC50, CD40 RGA, HEK Blue only (sample v32477 + uPa)” value [9] was 0.13 µg/mL, the “EC50, CD40 RGA, HEK Blue only (sample v32477 - uPa)” value [9] was 0.15 µg/mL and the “EC50, CD40 RGA, WT CHOK1 (sample v32477 + uPa)” value [9] was 0.1 µg/mL. For the same binder, the “EC50, CD40 RGA, WT CHOK1 (sample v32477 - uPa)” value [9] was 0.14 µg/mL, the “Fold wrt WT (EC50), CD40 RGA, FcgRIIB CHOK1 (sample v32477 + uPa)” value [9] was 0.71 fold and the “Fold wrt WT (EC50), CD40 RGA, HEK Blue only (sample v32477 + uPa)” value [9] was 0.86 fold. For the same binder, the “Fold wrt WT (EC50), CD40 RGA, WT CHOK1 (sample v32477 + uPa)” value [9] was 0.75 fold, the “Fold wrt WT” value [10] was 0.96 fold and the EC50 [11] was 0.94 nM. The EC50 [12] was 1 nM.

B4: Variant 32479: HA PD-1:WT PD-L1 masked aCD40 Mab, PD-L1 cleavable (not treated with uPa) (antibody, human IgG1, kappa)
heavy: not shown
light: AFTVTVPKDLYVVEYGSNMTIECKFPVEKQLDLAALIVYWEMEDKNIIQFVHGEEDLKVQHSSYRQRARLLKDQLSLGNAALQITDVKLQDAGVYRCMISYGGADYKRITVKVNAEAAAKEAAAKMSGRSANADIQMTQSPSSVSASVGDRVTITCRASQGIYSWLAWYQQKPGKAPNLLIYTASTLQSGVPSRFSGSGSGTDFTLTISSLQPEDFATYYCQQANIFPLTFGGGTKVEIKRTVAAPSVFIFPPSDEQLKSGTASVVCLLNNFYPREAKVQWKVDNALQSGNSQESVTEQDSKDSTYSLSSTLTLSKADYEKHKVYACEVTHQGLSSPVTKSFNRGEC
notes: also called v32479; untreated v32479
With B4 the EC50 [8] was 14 nM, the “EC50, CD40 RGA, FcgRIIB CHOK1 (sample v32479 - uPa)” value [9] was 2.64 µg/mL and the “EC50, CD40 RGA, WT CHOK1 (sample v32479 - uPa)” value [9] was 44.7 µg/mL. For the same binder, the “Fold wrt WT (EC50), CD40 RGA, FcgRIIB CHOK1 (sample v32479 - uPa)” value [9] was 54.3 fold, the “Fold wrt WT (EC50), CD40 RGA, WT CHOK1 (sample v32479 - uPa)” value [9] was 326 fold and the “fold reduction of binding vs unmasked v32477” value [13] was 14 fold. For the same binder, the “CD40 reporter gene assay, fold masking of activity” value [14] was 55 fold.

Source: patent publication US20230331809A1 (Zymeworks, published 2023)
